{"source": "patent US20090053138", "key": {"[1]": {"system": "T1, VEGF (Homo sapiens ?), P15692-4", "T1 sequence": "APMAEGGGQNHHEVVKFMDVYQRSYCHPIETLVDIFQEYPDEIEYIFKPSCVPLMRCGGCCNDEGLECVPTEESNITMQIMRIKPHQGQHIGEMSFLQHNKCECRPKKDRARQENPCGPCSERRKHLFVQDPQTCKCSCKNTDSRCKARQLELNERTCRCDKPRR", "assay": "FP filter", "details": "nitrocellulose dot blot"}, "PDGF-AB (Homo sapiens)": {"biological_target": "PDGF-AB (Homo sapiens) (UniProt P04085+P01127)", "sequence (P01127 82-190, chain 2 of 2, other chains not shown)": "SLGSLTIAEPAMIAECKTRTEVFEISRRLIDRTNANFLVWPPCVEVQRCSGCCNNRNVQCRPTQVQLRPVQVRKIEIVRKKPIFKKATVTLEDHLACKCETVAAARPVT", "assay": "competition", "details": "DNA with s1 fU6 fC8 mG9; s2 mG5 mG7 fU10 fC11 mA12; s3 fC5 fC6 fU7 mG8 (f=2'-F, m=2'-OMe); HEG spacers between segments; 3'-inverted dT; dot blot; p348 prints uM, legend prints pM"}, "[2]": {"biological_target": "PDGF-BB (Rattus norvegicus) (UniProt Q05028)", "sequence (Q05028 74-182)": "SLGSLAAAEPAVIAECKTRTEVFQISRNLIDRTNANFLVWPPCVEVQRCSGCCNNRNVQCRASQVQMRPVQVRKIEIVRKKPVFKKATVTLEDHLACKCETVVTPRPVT", "assay": "competition", "details": "DNA with s1 fU6 fC8 mG9; s2 mG5 mG7 fU10 fC11 mA12; s3 fC5 fC6 fU7 mG8 (f=2'-F, m=2'-OMe); HEG spacers between segments; 3'-inverted dT; equal affinity to …"}, "[3]": {"system": "PDGF-AA (Homo sapiens), P04085-2", "assay": "competition", "details": "PEG-conjugated ARC513 (PEG size per image, not given); 2'-OMe as ARC513; PEG spacers; figure legend states no binding to PDGF-AA"}}, "note": "pKd: −log10 of the molar value.", "data": [{"sequence": "AUGCAGUUUGAGAAGUCGCGCAU [ARC245]", "values": [{"measurement": "pKd", "setting": "[1]; all 2'-OMe", "result": 8.70}]}, {"sequence": "CAGGCTACGAUGCAGUUUGAGAAGUCGCGCAUCGTAGAGCATCAGAAATGATCCTG [TK.131.012.A]", "values": [{"measurement": "pKd", "setting": "[1]; ARC126 part deoxy, ARC245 part 2'-OMe, dGdAdAdA linker", "result": 8.00}]}, {"sequence": "CAGGCTACGUGCAGUUUGAGAAGUCGCGCACGTAGAGCATCAGAAATGATCCTG [TK.131.012.B]", "values": [{"measurement": "pKd", "setting": "[1]; ARC126 part deoxy, ARC245 part 2'-OMe (first mA-mU pair removed), dGdAdAdA linker", "result": 8.30}]}, {"sequence": "CAGGCUACGCGTAGAGCAUCATGATCCUG [ARC126]", "values": [{"measurement": "Kd", "setting": "PDGF-AB (Homo sapiens)", "result": 0.0001, "unit": "µM"}, {"measurement": "pKd", "setting": "[2]", "result": 10.00}]}, {"sequence": "CCCAGGCTACGCGTAGAGCAUCATGATCCTGGG [ARC594 (AX102)]", "values": [{"measurement": "pKd", "setting": "[3]", "result": 8.59}]}]}
